T1: human GITR at the cell surface (human, UniProt Q9Y5U5 26-241)
T1 sequence (looked up): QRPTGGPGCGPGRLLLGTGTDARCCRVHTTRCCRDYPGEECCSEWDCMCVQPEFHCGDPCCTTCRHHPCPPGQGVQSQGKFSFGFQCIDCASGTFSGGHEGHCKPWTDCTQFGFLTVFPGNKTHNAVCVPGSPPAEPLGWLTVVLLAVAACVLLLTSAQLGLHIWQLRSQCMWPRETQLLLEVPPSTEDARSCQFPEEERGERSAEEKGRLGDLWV

T2: human GITR-Fc (human, UniProt Q9Y5U5 26-161)
T2 construct: Recombinant GITR-Fc; also called hGITR-Fc; hGITR; not shown: Fc part
T2 sequence (looked up): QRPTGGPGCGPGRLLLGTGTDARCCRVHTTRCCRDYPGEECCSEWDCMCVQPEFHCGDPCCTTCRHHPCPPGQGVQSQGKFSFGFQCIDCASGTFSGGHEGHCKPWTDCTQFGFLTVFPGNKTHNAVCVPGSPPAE

B1: D-A6 IgG1 (antibody, V domains shown)
VH: EVQLVESGGGLVQPGGSLRLSCAASGFSLSTSGYGVGWVRQAPGKGLEWLAHIWWDDDKYYVDSVKGRFTISRDNAKNSLYLQMNSLRAEDTAVYYCARTRQYFPFAYWGQGTLVTVSS
VL: EIVLTQSPATLSLSPGERATLSCRASQSVGSNLAWYQQKPGQAPRLLIYSASYRYTGIPARFSGSGSGTDFTLTISSLEPEDFAVYYCQQYSTDPLTFGGGTKVEIK
notes: Human IgG1
B2: chimeric anti-GITR IgG1 mVH/mVL (6C8 murine v-domains) (antibody, V domains shown)
VH: QVTLKESGPGILKPSQTLSLTCSFSGFSLSTSGMGVGWIRQPSGKGLEWLAHIWWDDDKYYNPSLKSQLTISKDTSRNQVFLKITSVDTADAATYYCARTRRYFPFAYWGQGTLVTVSS
VL: DIVMTQSQKFMSTSVGDRVSVTCKASQNVGTNVAWYQQKPGQSPKALIYSASYRYSGVPDRFTGSGSGTDFTLTINNVHSEDLAEYFCQQYNTDPLTFGAGTKLEIK
notes: Full-length human IgG1, kappa; also called GITR-mVH/mVL; chimeric IgG

Key:
[1] = target: T1, human GITR at the cell surface; assay: cell-based or functional assay
[2] = target: cynomolgus monkey GITR at the cell surface (cynomolgus monkey); assay: cell-based or functional assay
[3] = target: T1, human GITR at the cell surface; assay: flow cytometry on CHO-K1 human GITR+ cells; competitor: soluble human GITRL
human GITR-Fc = target: T2, human GITR-Fc; assay: HTRF competition: unlabelled IgG1 titrated 0.003-100 µg/ml against terbium-labelled VH1/VL1 IgG on biotinylated human GITR-Fc with SA-XL665, 665/615 ratio
Method: A competition HTRF assay was established to examine epitope competition against VH1/VL1 IgG by grafted and library-derived clones. The purified VH1/VL1 IgG was labelled with terbium using a labelling kit (CisBio) per the manufacturers instructions. The final reaction mix contained biotinylated human GITR-Fc, SA-XL665 (CisBio), terbium-labelled parental […], and competitor IgG of interest, prepared as described above, in a total reaction volume of 20 μl in 1× assay buffer [50 mM sodium phosphate, pH 7.5, 400 mM potassium fluoride, and 0.1% BSA (w/v)]. Reagents were added sequentially on a MiniTrak Liquid Handling Platform (Perkin-Elmer) into 384-well low-volume black plates (Nunc). Reactions proceeded for 1 h at room temperature, and plates were subsequently read on a plate reader with excitation at 340 nm and two emission readings at 615 nm (measuring input donor fluorescence from VH1-VL1-cryptate) and 665 nm (measuring output acceptor fluorescence from SAXL665). Readings were expressed as 665 nm/615 nm ratios.
To examine the competition of the library-derived clones with the unaltered, closest-germline grafted CDRs of VH1/VL1 IgG, an Homogeneous Time Resolved Fluorescence (HTRF) assay was established. This assay incorporated terbium-labelled VH1/VL1 IgG, Biotinylated hGITR-Fc and streptavidin-XL665, in solution-phase binding. […]

[4] = target: T3, cynomolgus monkey GITR-Fc (cynomolgus monkey (Macaca fascicularis)); assay: direct titration ELISA on coated cyno GITR-Fc, IgG1 0.001-1 µg/ml, OD 450 nm
T3 construct: also called cyno GITR-Fc; cGITR-Fc
Method: To coat Greiner Bio-One High bind ELISA plates, target proteins were diluted to 1 μg/ml in carbonate buffer and added at 100 μl per well, at 4° C., o/n. Coated plates were washed 3× with PBS pH7.4, blocked with 1% BSA in PBS (380 μl/well) for 1 hr at RT, then washed 3× with PBS-Tween 20 (PBST). GITR antibodies (100 μl/well; diluted in PBST) were then added and then incubated 1 hr at RT. Plates were then washed 3× with PBST and goat anti-human kappa chain-HRP added (100 μl/well) at RT, for 1 hr. Plates were then washed 3× with PBST and twice with PBS before the addition of 100 μl TMB per well. Reactions were stopped by adding 100 μl 2M H₂SO₄/well and OD was read on a plate reader at 450 nm. IgG binding analysis via ELISA on negatively charged biomolecular surfaces were performed as previously described (see Mouquet et al., 2010, Nature 467: 591-595).
The 17 purified IgGs described above were then tested for binding to human and cyno GITR-Fc in direct titration ELISA format.

| Binder | EC50 of FcγRIIIa activation, Promega ADCC reporter assay, CHO-K1 target cells expressing human GITR [1] [nM] | potency against VH1/VL1 IgG1, ADCC reporter assay on human GITR CHO-K1 cells [1] [fold] | EC50 of FcγRIIIa activation, Promega ADCC reporter assay, CHO-K1 target cells expressing cyno GITR [2] [nM] | potency against VH1/VL1 IgG1, ADCC reporter assay on cyno GITR CHO-K1 cells [2] [fold] | fold reduction of binding signal in the presence of 10 µg/ml soluble GITRL [3] [fold] | IC50 (read off the curve) (human GITR-Fc) [µg/mL] | EC50 (read off the curve) [4] [µg/mL] |
| --- | --- | --- | --- | --- | --- | --- | --- |
| B1 | 15.4 | 2 | 57.9 | 2 | > 10 | ~1 |  |
| B2 |  |  |  |  |  |  | ~0.05 |

— patent US20190375846A1 (ULTRAHUMAN ONE, published 2019)
